Assay results: patent US12679878B2, “CRF2 receptor agonists and their use in therapy” (SANOFI, priority 2020, dated 2026)
Starred links: 1 amine or outer side, 2 acyl side, 3 side chain; linkers in the order of their positions; H or OH if unused. Non-standard residues stand in square brackets, D forms with d. Groups on a side chain read outwards from the residue. No end group written: not given here. *: point of attachment. C18 diacid = O=C(O)CCCCCCCCCCCCCCCCC(=O)*; γGlu = O=C(O)[C@H](CCC(=O)[*:2])N[*:1]; Palmitoyl = CCCCCCCCCCCCCCCC(=O)*; AEEA = NCCOCCOCC(=O)O; Aib = CC(C)(N)C(=O)O

B1: SEQ ID NO: 158 (peptide)
peptide: Ac-IVLSLD[dV]PIKLK([AEEA-AEEA-γGlu-C18 diacid])QILLEQERQK[Aib]QREQAEKNKQILEQV-NH2
SMILES: CC[C@H](C)[C@H](NC(C)=O)C(=O)N[C@H](C(=O)N[C@@H](CC(C)C)C(=O)N[C@@H](CO)C(=O)N[C@@H](CC(C)C)C(=O)N[C@@H](CC(=O)O)C(=O)N[C@@H](C(=O)N1CCC[C@H]1C(=O)N[C@H](C(=O)N[C@@H](CCCCN)C(=O)N[C@@H](CC(C)C)C(=O)N[C@@H](CCCCNC(=O)COCCOCCNC(=O)COCCOCCNC(=O)CC[C@H](NC(=O)CCCCCCCCCCCCCCCCC(=O)O)C(=O)O)C(=O)N[C@@H](CCC(N)=O)C(=O)N[C@H](C(=O)N[C@@H](CC(C)C)C(=O)N[C@@H](CC(C)C)C(=O)N[C@@H](CCC(=O)O)C(=O)N[C@@H](CCC(N)=O)C(=O)N[C@@H](CCC(=O)O)C(=O)N[C@@H](CCCNC(=N)N)C(=O)N[C@@H](CCC(N)=O)C(=O)N[C@@H](CCCCN)C(=O)NC(C)(C)C(=O)N[C@@H](CCC(N)=O)C(=O)N[C@@H](CCCNC(=N)N)C(=O)N[C@@H](CCC(=O)O)C(=O)N[C@@H](CCC(N)=O)C(=O)N[C@@H](C)C(=O)N[C@@H](CCC(=O)O)C(=O)N[C@@H](CCCCN)C(=O)N[C@@H](CC(N)=O)C(=O)N[C@@H](CCCCN)C(=O)N[C@@H](CCC(N)=O)C(=O)N[C@H](C(=O)N[C@@H](CC(C)C)C(=O)N[C@@H](CCC(=O)O)C(=O)N[C@@H](CCC(N)=O)C(=O)N[C@H](C(N)=O)C(C)C)[C@@H](C)CC)[C@@H](C)CC)[C@@H](C)CC)C(C)C)C(C)C
B2: SEQ ID NO: 154 (peptide)
peptide: IVLSLDVPIGLK([AEEA-AEEA-γGlu-C18 diacid])QILLEQEKQEKEKQQAETNKRILERV-NH2
modifications: N-terminus assumed
SMILES: CC[C@H](C)[C@H](N)C(=O)N[C@H](C(=O)N[C@@H](CC(C)C)C(=O)N[C@@H](CO)C(=O)N[C@@H](CC(C)C)C(=O)N[C@@H](CC(=O)O)C(=O)N[C@H](C(=O)N1CCC[C@H]1C(=O)N[C@H](C(=O)NCC(=O)N[C@@H](CC(C)C)C(=O)N[C@@H](CCCCNC(=O)COCCOCCNC(=O)COCCOCCNC(=O)CC[C@H](NC(=O)CCCCCCCCCCCCCCCCC(=O)O)C(=O)O)C(=O)N[C@@H](CCC(N)=O)C(=O)N[C@H](C(=O)N[C@@H](CC(C)C)C(=O)N[C@@H](CC(C)C)C(=O)N[C@@H](CCC(=O)O)C(=O)N[C@@H](CCC(N)=O)C(=O)N[C@@H](CCC(=O)O)C(=O)N[C@@H](CCCCN)C(=O)N[C@@H](CCC(N)=O)C(=O)N[C@@H](CCC(=O)O)C(=O)N[C@@H](CCCCN)C(=O)N[C@@H](CCC(=O)O)C(=O)N[C@@H](CCCCN)C(=O)N[C@@H](CCC(N)=O)C(=O)N[C@@H](CCC(N)=O)C(=O)N[C@@H](C)C(=O)N[C@@H](CCC(=O)O)C(=O)N[C@H](C(=O)N[C@@H](CC(N)=O)C(=O)N[C@@H](CCCCN)C(=O)N[C@@H](CCCNC(=N)N)C(=O)N[C@H](C(=O)N[C@@H](CC(C)C)C(=O)N[C@@H](CCC(=O)O)C(=O)N[C@@H](CCCNC(=N)N)C(=O)N[C@H](C(N)=O)C(C)C)[C@@H](C)CC)[C@@H](C)O)[C@@H](C)CC)[C@@H](C)CC)C(C)C)C(C)C
B3: SEQ ID NO: 155 (peptide)
peptide: IVLSLDVPIGLK([AEEA-AEEA-γGlu-C18 diacid])QILLEQEKQEKEKQQAEKNKRILERV-NH2
modifications: N-terminus assumed
SMILES: CC[C@H](C)[C@H](N)C(=O)N[C@H](C(=O)N[C@@H](CC(C)C)C(=O)N[C@@H](CO)C(=O)N[C@@H](CC(C)C)C(=O)N[C@@H](CC(=O)O)C(=O)N[C@H](C(=O)N1CCC[C@H]1C(=O)N[C@H](C(=O)NCC(=O)N[C@@H](CC(C)C)C(=O)N[C@@H](CCCCNC(=O)COCCOCCNC(=O)COCCOCCNC(=O)CC[C@H](NC(=O)CCCCCCCCCCCCCCCCC(=O)O)C(=O)O)C(=O)N[C@@H](CCC(N)=O)C(=O)N[C@H](C(=O)N[C@@H](CC(C)C)C(=O)N[C@@H](CC(C)C)C(=O)N[C@@H](CCC(=O)O)C(=O)N[C@@H](CCC(N)=O)C(=O)N[C@@H](CCC(=O)O)C(=O)N[C@@H](CCCCN)C(=O)N[C@@H](CCC(N)=O)C(=O)N[C@@H](CCC(=O)O)C(=O)N[C@@H](CCCCN)C(=O)N[C@@H](CCC(=O)O)C(=O)N[C@@H](CCCCN)C(=O)N[C@@H](CCC(N)=O)C(=O)N[C@@H](CCC(N)=O)C(=O)N[C@@H](C)C(=O)N[C@@H](CCC(=O)O)C(=O)N[C@@H](CCCCN)C(=O)N[C@@H](CC(N)=O)C(=O)N[C@@H](CCCCN)C(=O)N[C@@H](CCCNC(=N)N)C(=O)N[C@H](C(=O)N[C@@H](CC(C)C)C(=O)N[C@@H](CCC(=O)O)C(=O)N[C@@H](CCCNC(=N)N)C(=O)N[C@H](C(N)=O)C(C)C)[C@@H](C)CC)[C@@H](C)CC)[C@@H](C)CC)C(C)C)C(C)C
B4: SEQ ID NO: 17 (peptide)
peptide: IVLSLDVPIKLK([γGlu-Palmitoyl])KILLEQEKQKKQREQAETNKQILAQV-NH2
modifications: N-terminus assumed
SMILES: CCCCCCCCCCCCCCCC(=O)N[C@@H](CCC(=O)NCCCC[C@H](NC(=O)[C@H](CC(C)C)NC(=O)[C@H](CCCCN)NC(=O)[C@@H](NC(=O)[C@@H]1CCCN1C(=O)[C@@H](NC(=O)[C@H](CC(=O)O)NC(=O)[C@H](CC(C)C)NC(=O)[C@H](CO)NC(=O)[C@H](CC(C)C)NC(=O)[C@@H](NC(=O)[C@@H](N)[C@@H](C)CC)C(C)C)C(C)C)[C@@H](C)CC)C(=O)N[C@@H](CCCCN)C(=O)N[C@H](C(=O)N[C@@H](CC(C)C)C(=O)N[C@@H](CC(C)C)C(=O)N[C@@H](CCC(=O)O)C(=O)N[C@@H](CCC(N)=O)C(=O)N[C@@H](CCC(=O)O)C(=O)N[C@@H](CCCCN)C(=O)N[C@@H](CCC(N)=O)C(=O)N[C@@H](CCCCN)C(=O)N[C@@H](CCCCN)C(=O)N[C@@H](CCC(N)=O)C(=O)N[C@@H](CCCNC(=N)N)C(=O)N[C@@H](CCC(=O)O)C(=O)N[C@@H](CCC(N)=O)C(=O)N[C@@H](C)C(=O)N[C@@H](CCC(=O)O)C(=O)N[C@H](C(=O)N[C@@H](CC(N)=O)C(=O)N[C@@H](CCCCN)C(=O)N[C@@H](CCC(N)=O)C(=O)N[C@H](C(=O)N[C@@H](CC(C)C)C(=O)N[C@@H](C)C(=O)N[C@@H](CCC(N)=O)C(=O)N[C@H](C(N)=O)C(C)C)[C@@H](C)CC)[C@@H](C)O)[C@@H](C)CC)C(=O)O
B5: SEQ ID NO: 156 (peptide)
peptide: IVLSLDVPIGLK([AEEA-AEEA-γGlu-C18 diacid])QILLKQERQKK[Aib]REQAETNAQILAQV-NH2
modifications: N-terminus assumed
SMILES: CC[C@H](C)[C@H](N)C(=O)N[C@H](C(=O)N[C@@H](CC(C)C)C(=O)N[C@@H](CO)C(=O)N[C@@H](CC(C)C)C(=O)N[C@@H](CC(=O)O)C(=O)N[C@H](C(=O)N1CCC[C@H]1C(=O)N[C@H](C(=O)NCC(=O)N[C@@H](CC(C)C)C(=O)N[C@@H](CCCCNC(=O)COCCOCCNC(=O)COCCOCCNC(=O)CC[C@H](NC(=O)CCCCCCCCCCCCCCCCC(=O)O)C(=O)O)C(=O)N[C@@H](CCC(N)=O)C(=O)N[C@H](C(=O)N[C@@H](CC(C)C)C(=O)N[C@@H](CC(C)C)C(=O)N[C@@H](CCCCN)C(=O)N[C@@H](CCC(N)=O)C(=O)N[C@@H](CCC(=O)O)C(=O)N[C@@H](CCCNC(=N)N)C(=O)N[C@@H](CCC(N)=O)C(=O)N[C@@H](CCCCN)C(=O)N[C@@H](CCCCN)C(=O)NC(C)(C)C(=O)N[C@@H](CCCNC(=N)N)C(=O)N[C@@H](CCC(=O)O)C(=O)N[C@@H](CCC(N)=O)C(=O)N[C@@H](C)C(=O)N[C@@H](CCC(=O)O)C(=O)N[C@H](C(=O)N[C@@H](CC(N)=O)C(=O)N[C@@H](C)C(=O)N[C@@H](CCC(N)=O)C(=O)N[C@H](C(=O)N[C@@H](CC(C)C)C(=O)N[C@@H](C)C(=O)N[C@@H](CCC(N)=O)C(=O)N[C@H](C(N)=O)C(C)C)[C@@H](C)CC)[C@@H](C)O)[C@@H](C)CC)[C@@H](C)CC)C(C)C)C(C)C
B6: SEQ ID NO: 157 (peptide)
peptide: Ac-IVLSLD[dV]PIKLK([AEEA-AEEA-γGlu-C18 diacid])QILLEQARQK[Aib]QREQAEKNKQILEQV-NH2
SMILES: CC[C@H](C)[C@H](NC(C)=O)C(=O)N[C@H](C(=O)N[C@@H](CC(C)C)C(=O)N[C@@H](CO)C(=O)N[C@@H](CC(C)C)C(=O)N[C@@H](CC(=O)O)C(=O)N[C@@H](C(=O)N1CCC[C@H]1C(=O)N[C@H](C(=O)N[C@@H](CCCCN)C(=O)N[C@@H](CC(C)C)C(=O)N[C@@H](CCCCNC(=O)COCCOCCNC(=O)COCCOCCNC(=O)CC[C@H](NC(=O)CCCCCCCCCCCCCCCCC(=O)O)C(=O)O)C(=O)N[C@@H](CCC(N)=O)C(=O)N[C@H](C(=O)N[C@@H](CC(C)C)C(=O)N[C@@H](CC(C)C)C(=O)N[C@@H](CCC(=O)O)C(=O)N[C@@H](CCC(N)=O)C(=O)N[C@@H](C)C(=O)N[C@@H](CCCNC(=N)N)C(=O)N[C@@H](CCC(N)=O)C(=O)N[C@@H](CCCCN)C(=O)NC(C)(C)C(=O)N[C@@H](CCC(N)=O)C(=O)N[C@@H](CCCNC(=N)N)C(=O)N[C@@H](CCC(=O)O)C(=O)N[C@@H](CCC(N)=O)C(=O)N[C@@H](C)C(=O)N[C@@H](CCC(=O)O)C(=O)N[C@@H](CCCCN)C(=O)N[C@@H](CC(N)=O)C(=O)N[C@@H](CCCCN)C(=O)N[C@@H](CCC(N)=O)C(=O)N[C@H](C(=O)N[C@@H](CC(C)C)C(=O)N[C@@H](CCC(=O)O)C(=O)N[C@@H](CCC(N)=O)C(=O)N[C@H](C(N)=O)C(C)C)[C@@H](C)CC)[C@@H](C)CC)[C@@H](C)CC)C(C)C)C(C)C

These binders were tested against human corticotropin-releasing factor 2α (CRF2 α receptor) (human), Q13324 (assay: cell-based or functional assay).
Sequence of human corticotropin-releasing factor 2α (CRF2 α receptor) (human), Q13324 (Q13324 20-411): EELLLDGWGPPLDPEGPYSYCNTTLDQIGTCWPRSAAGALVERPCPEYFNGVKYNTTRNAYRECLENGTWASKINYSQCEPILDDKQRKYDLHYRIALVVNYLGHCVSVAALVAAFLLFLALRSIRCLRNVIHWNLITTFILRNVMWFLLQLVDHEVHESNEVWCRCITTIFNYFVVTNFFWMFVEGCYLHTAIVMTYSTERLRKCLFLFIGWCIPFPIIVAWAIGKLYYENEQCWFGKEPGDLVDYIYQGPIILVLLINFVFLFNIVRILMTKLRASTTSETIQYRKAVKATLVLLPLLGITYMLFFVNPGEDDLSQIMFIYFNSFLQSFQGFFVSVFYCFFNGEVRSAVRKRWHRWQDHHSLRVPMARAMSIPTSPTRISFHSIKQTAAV

EC50 [nM], 0% HSA	EC50 [nM], 0.1% HSA	Binder
0.42 nM	5.63 nM	B1
15 nM	15.3 nM	B2
8.87 nM		B3
0.02 nM		B4
1.06 nM		B5
0.12 nM	2.53 nM	B6
